# In article PMC10204944, “Development and characterization of nanobodies that specifically target the oncogenic Phosphatase of Regenerating Liver-3 (PRL-3) and impact its interaction with a known binding partner, CNNM3” (PLOS ONE, 2023):
# Residue numbers refer to the chain shown, from its start.
# B1: anti-PRL-3 nanobody 26 (VHH)
# VHH: QVQLQESGGGLVQPGGSLKLSCVVTGLHYYTEGWFRQAPGKEREGVSCISSSDGRTDYIDSVKGRFTISEDNDNKTVYLQMNTLKPDDTGVYYCVAERGPRGSTWWETYDYWGQGTHVTVSS
# notes: also called NB 26; nanobody 26-His; source: E. coli One-Shot BL21 Star DE3 (pMES4), purified (Ni-NTA, Superdex 200); not shown: 6XHis, C-terminal, kept
# B2: anti-PRL-3 nanobody 4 (VHH)
# VHH: QVQLQESGGGLVQTGGSLRLSCAASQSTYNFDVMGWYRLAPGKQREFLTSITNGGNIYYADSVKGRFTIARDDSKTTMYLEMNSLKPEDTAVYTCYGQTHKPRVTTSWGQGTQVTVSS
# notes: also called NB 4; source: E. coli One-Shot BL21 Star DE3 (pMES4), purified (Ni-NTA, Superdex 200); not shown: 6XHis, C-terminal, kept
# B3: anti-PRL-3 nanobody 16 (VHH)
# VHH: B2 VHH with Y29F, I69T
# notes: also called NB 16; source: E. coli One-Shot BL21 Star DE3 (pMES4), purified (Ni-NTA, Superdex 200); not shown: 6XHis, C-terminal, kept
# B4: anti-PRL-3 nanobody 91 (VHH)
# VHH: B2 VHH with Y29F
# notes: 91 is its standard; also called NB 91; nanobody 91-His; source: E. coli One-Shot BL21 Star DE3 (pMES4), purified (Ni-NTA, Superdex 200); not shown: 6XHis, C-terminal, kept
# B5: anti-PRL-3 nanobody 19 (VHH)
# VHH: QVQLQESGGGLVQAGGSLGLSCAASRSIFNFKVMGWYRQAPGKQRELVASITNSDNTYYADSVKGRFTISREDAKTTMYLEMNSLKPEDTAVYRCYGQNWGLRATTYWGQGTQVTVSS
# notes: also called NB 19; source: E. coli One-Shot BL21 Star DE3 (pMES4), purified (Ni-NTA, Superdex 200); not shown: 6XHis, C-terminal, kept
# B6: anti-PRL-3 nanobody 84 (VHH)
# VHH: B5 VHH with A91T
# notes: also called NB 84; source: E. coli One-Shot BL21 Star DE3 (pMES4), purified (Ni-NTA, Superdex 200); not shown: 6XHis, C-terminal, kept
# Molecular target: T1, recombinant PRL-3 (Phosphatase of Regenerating Liver-3) (Homo sapiens, UniProt O75365)
# T1 construct: Phosphatase of Regenerating Liver-3 (PRL-3), human cDNA amplified with gene-specific primers and cloned into pSKB3 (NheI/XhoI); also called apo PRL-3; PTP4A family member; source: E. coli One-Shot BL21 Star DE3, purified (Ni-NTA, TEV cleavage, Superdex 200); not shown: 6XHis, N-terminal, cleaved
# T1 sequence (O75365 1-169): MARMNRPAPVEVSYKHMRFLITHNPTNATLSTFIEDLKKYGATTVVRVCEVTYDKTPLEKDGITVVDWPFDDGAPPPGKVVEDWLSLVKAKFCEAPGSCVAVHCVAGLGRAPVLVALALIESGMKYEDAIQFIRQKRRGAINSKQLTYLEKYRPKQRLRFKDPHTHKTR
# Assay: BLI; BLItz; nanobody (626.57 nM) loaded on Anti-Penta-HIS (HIS1K) biosensors; PRL-3 as analyte at six concentrations; association 5 min, dissociation 2 min; 1X kinetics buffer; global fit
# Details: both partners purified
Kd [µM],koff [s⁻¹],kon [M⁻¹ s⁻¹],Binder
0.0289,0.000127,4380,B1
0.202,0.000565,2750,B2
0.299,0.000624,2090,B3
0.203,0.00139,6880,B4
0.0984,0.000386,3920,B5
0.101,0.000332,3280,B6
